The supplement of paper PMC5998384

Experiments:
HeLa Kyoto [1] = assay: solubility in G1/S (NP-40 vs SDS abundance) (log2 ratio); higher = more soluble; conditions: cell cycle stage: G1/S
HeLa Kyoto [2] = assay: melting temperature (median over replicates), in situ; higher = more thermally stable
HeLa Kyoto [3] = assay: solubility change mitosis vs G1/S (difference of NP-40 vs SDS log2 ratios) (log2 ratio difference); higher = more soluble in mitosis
HeLa Kyoto [4] = assay: thermal stability score vs G1/S (z-score of summed log2 fold changes over temperatures); higher = more thermally stable than in G1/S
[5] = cell cycle stage: early G1 (4.5 h after nocodazole release)
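Throughout, for melting temperature (median over replicates), in situ: HeLa Kyoto cells synchronized by double thymidine or nocodazole block, proteins quantified by TMT10plex mass spectrometry, three independent biological replicates.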
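Throughout, for solubility change mitosis vs G1/S (difference of NP-40 vs SDS log2 ratios): synchronized HeLa Kyoto cells (double thymidine block for G1/S, nocodazole release for mitosis), protein amounts in NP-40 versus SDS lysates quantified by mass spectrometry, three biological replicates.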
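Throughout, for solubility in G1/S (NP-40 vs SDS abundance): HeLa Kyoto cells arrested at G1/S by double thymidine block, proteins quantified by TMT10plex mass spectrometry in mild NP-40 versus SDS extracts, three biological replicates.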
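Throughout, for thermal stability score vs G1/S (z-score of summed log2 fold changes over temperatures): synchronized HeLa Kyoto cells, proteins quantified by TMT10plex mass spectrometry, three biological replicates, mitosis taken 0.5 h after nocodazole release, G1/S directly after double thymidine block.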

Sequence	solubility in G1/S (log2) (HeLa Kyoto [1])	melting temperature (HeLa Kyoto [2]; cell cycle stage: G1/S)	melting temperature (HeLa Kyoto [2]; cell cycle stage: mitosis)	solubility change mitosis (log2) (HeLa Kyoto [3])	thermal stability score (HeLa Kyoto [4]; [5])	thermal stability score (HeLa Kyoto [4]; cell cycle stage: mitosis)
MEKRLGVKPNPASWILSGYYWQTSAKWLRSLYLFYTCFCFSVLWLSTDASESRCQQGKTQFGVGLRSGGENHLWLLEGTPSLQSCWAACCQDSACHVFWWLEGMCIQADCSRPQSCRAFRTHSSNSMLVFLKKFQTADDLGFLPEDDVPHLLGLGWNWASWRQSPPRAALRPAVSSSDQQSLIRKLQKRGSPSDVVTPIVTQHSKVNDSNELGGLTTSGSAEVHKAITISSPLTTDLTAELSGGPKNVSVQPEISEGLATTPSTQQVKSSEKTQIAVPQPVAPSYSYATPTPQASFQSTSAPYPVIKELVVSAGESVQITLPKNEVQLNAYVLQEPPKGETYTYDWQLITHPRDYSGEMEGKHSQILKLSKLTPGLYEFKVIVEGQNAHGEGYVNVTVKPEPRKNRPPIAIVSPQFQEISLPTTSTVIDGSQSTDDDKIVQYHWEELKGPLREEKISEDTAILKLSKLVPGNYTFSLTVVDSDGATNSTTANLTVNKAVDYPPVANAGPNQVITLPQNSITLFGNQSTDDHGITSYEWSLSPSSKGKVVEMQGVRTPTLQLSAMQEGDYTYQLTVTDTIGQQATAQVTVIVQPENNKPPQADAGPDKELTLPVDSTTLDGSKSSDDQKIISYLWEKTQGPDGVQLENANSSVATVTGLQVGTYVFTLTVKDERNLQSQSSVNVIVKEEINKPPIAKITGNVVITLPTSTAELDGSKSSDDKGIVSYLWTRDEGSPAAGEVLNHSDHHPILFLSNLVEGTYTFHLKVTDAKGESDTDRTTVEVKPDPRKNNLVEIILDINVSQLTERLKGMFIRQIGVLLGVLDSDIIVQKIQPYTEQSTKMVFFVQNEPPHQIFKGHEVAAMLKSELRKQKADFLIFRALEVNTVTCQLNCSDHGHCDSFTKRCICDPFWMENFIKVQLRDGDSNCEWSVLYVIIATFVIVVALGILSWTVICCCKRQKGKPKRKSKYKILDATDQESLELKPTSRAGIKQKGLLLSSSLMHSESELDSDDAIFTWPDREKGKLLHGQNGSVPNGQTPLKARSPREEIL [KIAA0319L]	0.0342	58.5 °C	56.2 °C	0.0841	-3.99	-5.23
MLSAASRVVSRAAVHCALRSPPPEARALAMSRPPPPRVASVLGTMEMGRRMDAPASAAAVRAFLERGHTELDTAFMYSDGQSETILGGLGLGLGGGDCRVKIATKANPWDGKSLKPDSVRSQLETSLKRLQCPQVDLFYLHAPDHGTPVEETLHACQRLHQEGKFVELGLSNYASWEVAEICTLCKSNGWILPTVYQGMYNATTRQVETELFPCLRHFGLRFYAYNPLAGGLLTGKYKYEDKDGKQPVGRFFGNSWAETYRNRFWKEHHFEAIALVEKALQAAYGASAPSVTSAALRWMYHHSQLQGAHGDAVILGMSSLEQLEQNLAATEEGPLEPAVVDAFNQAWHLVAHECPNYFR [AKR7A2]	0.438	53.1 °C	53.1 °C	-0.121	0.491	0.31
MAFNFGAPSGTSGTAAATAAPAGGFGGFGTTSTTAGSAFSFSAPTNTGTTGLFGGTQNKGFGFGTGFGTTTGTSTGLGTGLGTGLGFGGFNTQQQQQTTLGGLFSQPTQAPTQSNQLINTASALSAPTLLGDERDAILAKWNQLQAFWGTGKGYFNNNIPPVEFTQENPFCRFKAVGYSCMPSNKDEDGLVVLVFNKKETEIRSQQQQLVESLHKVLGGNQTLTVNVEGTKTLPDDQTEVVIYVVERSPNGTSRRVPATTLYAHFEQANIKTQLQQLGVTLSMTRTELSPAQIKQLLQNPPAGVDPIIWEQAKVDNPDSEKLIPVPMVGFKELLRRLKVQDQMTKQHQTRLDIISEDISELQKNQTTSVAKIAQYKRKLMDLSHRTLQVLIKQEIQRKSGYAIQADEEQLRVQLDTIQGELNAPTQFKGRLNELMSQIRMQNHFGAVRSEERYYIDADLLREIKQHLKQQQEGLSHLISIIKDDLEDIKLVEHGLNETIHIRGGVFS [NUP54]	0.299	51.5 °C	49 °C	0.0698	-3.43	-5.53
MRGVWPPPVSALLSALGMSTYKRATLDEEDLVDSLSEGDAYPNGLQVNFHSPRSGQRCWAARTQVEKRLVVLVVLLAAGLVACLAALGIQYQTRSPSVCLSEACVSVTSSILSSMDPTVDPCHDFFSYACGGWIKANPVPDGHSRWGTFSNLWEHNQAIIKHLLENSTASVSEAERKAQVYYRACMNETRIEELRAKPLMELIERLGGWNITGPWAKDNFQDTLQVVTAHYRTSPFFSVYVSADSKNSNSNVIQVDQSGLGLPSRDYYLNKTENEKVLTGYLNYMVQLGKLLGGGDEEAIRPQMQQILDFETALANITIPQEKRRDEELIYHKVTAAELQTLAPAINWLPFLNTIFYPVEINESEPIVVYDKEYLEQISTLINTTDRCLLNNYMIWNLVRKTSSFLDQRFQDADEKFMEVMYGTKKTCLPRWKFCVSDTENNLGFALGPMFVKATFAEDSKSIATEIILEIKKAFEESLSTLKWMDEETRKSAKEKADAIYNMIGYPNFIMDPKELDKVFNDYTAVPDLYFENAMRFFNFSWRVTADQLRKAPNRDQWSMTPPMVNAYYSPTKNEIVFPAGILQAPFYTRSSPKALNFGGIGVVVGHELTHAFDDQGREYDKDGNLRPWWKNSSVEAFKRQTECMVEQYSNYSVNGEPVNGRHTLGENIADNGGLKAAYRAYQNWVKKNGAEHSLPTLGLTNNQLFFLGFAQVWCSVRTPESSHEGLITDPHSPSRFRVIGSLSNSKEFSEHFRCPPGSPMNPPHKCEVW [ECE1]	0.243	56.1 °C	55.2 °C	-0.00992	-1.05	-0.159
MADPRVRQIKIKTGVVKRLVKEKVMYEKEAKQQEEKIEKMRAEDGENYDIKKQAEILQESRMMIPDCQRRLEAAYLDLQRILENEKDLEEAEEYKEARLVLDSVKLEA [TBCA]	0.241	55.4 °C	53 °C	0.298	-7.45	-6.72
MEQPGQDPTSDDVMDSFLEKFQSQPYRGGFHEDQWEKEFEKVPLFMSRAPSEIDPRENPDLACLQSIIFDEERSPEEQAKTYKDEGNDYFKEKDYKKAVISYTEGLKKKCADPDLNAVLYTNRAAAQYYLGNFRSALNDVTAARKLKPCHLKAIIRGALCHLELKHFAEAVNWCDEGLQIDAKEKKLLEMRAKADKLKRIEQRDVRKANLKEKKERNQNEALLQAIKARNIRLSEAACEDEDSASEGLGELFLDGLSTENPHGARLSLDGQGRLSWPVLFLYPEYAQSDFISAFHEDSRFIDHLMVMFGETPSWDLEQKYCPDNLEVYFEDEDRAELYRVPAKSTLLQVLQHQRYFVKALTPAFLVCVGSSPFCKNFLRGRKVYQIR [TTC4]	0.484	49.8 °C	49.4 °C	-0.0862	-0.209	0.287
